{"source": "patent US20210238288A1", "about": "(Genentech, published 2021)", "binders": {"B1": {"name": "rhuMAb Beta7 (etrolizumab) (antibody, V domains shown)", "VH": "EVQLVESGGGLVQPGGSLRLSCAASGFFITNNYWGWVRQAPGKGLEWVGYISYSGSTSYNPSLKSRFTISRDTSKNTFYLQMNSLRAEDTAVYYCARTGSSGYFDFWGQGTLVTVSS", "VL": "DIQMTQSPSSLSASVGDRVTITCRASESVDDLLHWYQQKPGKAPKLLIKYASQSISGVPSRFSGSGSGTDFTLTISSLQPEDFATYYCQQGNSLPNTFGQGTKVEIKR"}}, "key": {"[1]": {"molecular_target": "T1, αEβ7 integrin (human, UniProt P38570 19-1124; P26010 20-723)", "T1 construct": "Heterodimer; also called alphaEbeta7; CD103 (αE subunit)", "T1 sequence (P38570 19-1124, chain 1 of 2)": "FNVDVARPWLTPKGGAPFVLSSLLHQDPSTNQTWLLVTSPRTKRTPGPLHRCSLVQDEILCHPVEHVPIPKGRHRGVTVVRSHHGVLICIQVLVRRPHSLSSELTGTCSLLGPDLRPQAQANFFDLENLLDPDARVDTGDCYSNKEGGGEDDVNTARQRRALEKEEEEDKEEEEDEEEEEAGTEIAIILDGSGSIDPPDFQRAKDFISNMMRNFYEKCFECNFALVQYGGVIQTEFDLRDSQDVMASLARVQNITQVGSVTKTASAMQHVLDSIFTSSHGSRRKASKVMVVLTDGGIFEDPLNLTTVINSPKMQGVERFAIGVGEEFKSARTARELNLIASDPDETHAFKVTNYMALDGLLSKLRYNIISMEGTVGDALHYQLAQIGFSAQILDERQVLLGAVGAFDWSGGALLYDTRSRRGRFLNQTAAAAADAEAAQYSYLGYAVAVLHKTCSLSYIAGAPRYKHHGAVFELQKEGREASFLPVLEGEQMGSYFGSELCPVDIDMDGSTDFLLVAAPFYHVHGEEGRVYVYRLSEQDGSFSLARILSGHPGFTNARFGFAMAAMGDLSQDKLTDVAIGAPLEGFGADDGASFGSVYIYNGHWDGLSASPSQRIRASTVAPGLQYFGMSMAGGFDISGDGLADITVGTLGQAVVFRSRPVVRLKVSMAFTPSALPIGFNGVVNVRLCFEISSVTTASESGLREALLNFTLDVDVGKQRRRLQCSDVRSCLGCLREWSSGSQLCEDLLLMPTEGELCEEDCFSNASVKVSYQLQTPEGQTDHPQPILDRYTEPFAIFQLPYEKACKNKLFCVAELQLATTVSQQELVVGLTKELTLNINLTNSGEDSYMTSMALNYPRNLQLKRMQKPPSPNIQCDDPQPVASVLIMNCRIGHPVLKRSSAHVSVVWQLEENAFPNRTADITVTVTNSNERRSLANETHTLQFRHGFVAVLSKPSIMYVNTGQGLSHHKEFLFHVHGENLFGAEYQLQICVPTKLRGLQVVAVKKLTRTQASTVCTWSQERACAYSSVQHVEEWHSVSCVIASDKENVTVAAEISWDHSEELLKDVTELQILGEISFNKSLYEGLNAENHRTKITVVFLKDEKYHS", "T1 sequence (P26010 20-723, chain 2 of 2)": "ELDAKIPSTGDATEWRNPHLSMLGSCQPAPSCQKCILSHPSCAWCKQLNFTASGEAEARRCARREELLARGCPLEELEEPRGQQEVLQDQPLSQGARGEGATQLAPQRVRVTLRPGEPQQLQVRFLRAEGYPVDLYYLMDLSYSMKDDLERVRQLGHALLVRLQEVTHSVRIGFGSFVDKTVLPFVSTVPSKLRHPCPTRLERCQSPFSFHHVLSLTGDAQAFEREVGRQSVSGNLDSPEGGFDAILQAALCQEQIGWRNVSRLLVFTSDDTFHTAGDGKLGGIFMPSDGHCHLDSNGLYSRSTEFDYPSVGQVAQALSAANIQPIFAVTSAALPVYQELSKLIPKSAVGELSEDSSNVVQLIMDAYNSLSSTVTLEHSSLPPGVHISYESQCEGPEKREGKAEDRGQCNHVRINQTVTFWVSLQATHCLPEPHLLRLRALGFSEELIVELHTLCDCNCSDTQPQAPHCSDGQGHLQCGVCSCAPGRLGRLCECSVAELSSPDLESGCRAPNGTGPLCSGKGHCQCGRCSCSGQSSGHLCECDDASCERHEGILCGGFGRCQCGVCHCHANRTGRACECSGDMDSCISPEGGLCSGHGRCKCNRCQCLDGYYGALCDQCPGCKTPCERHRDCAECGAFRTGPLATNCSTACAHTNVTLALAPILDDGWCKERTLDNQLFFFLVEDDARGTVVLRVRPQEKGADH", "test": "method not stated"}, "[2]": {"molecular_target": "T2, α4β7 integrin (human, UniProt P13612 34-970; P26010 20-723)", "T2 construct": "Heterodimer; also called alpha4beta7", "test": "method not stated"}}}
{"binder": "B1", "values": [{"measurement": "Kd", "setting": "[1]", "result": "~1.8", "unit": "nM"}, {"measurement": "Kd", "setting": "[2]", "result": "~0.116", "unit": "nM"}]}
